Assay results as given in PMC6405930, “Conservation of the Amyloid Interactome Across Diverse Fibrillar Structures” (Scientific Reports, 2019).

Assays:
Ab1 fibrils [1] = tested on: T1, Ab1 fibrils; assay: Fibril incubation with plasma, quantitative MS/MS of bound proteins; format: binding, human; conditions: 50:1 w/w plasma protein:fibril
T1 construct: Synthetic amyloid β peptide 1–40 was purchased from Caslo Aps (Lyngby, Denmark); purchased Caslo Aps (Lyngby, Denmark); host or cells: synthetic peptide
Protocol: (§1) Plasma and CSF solutions were centrifuged (40,000 g, 20 min) to remove any aggregates. The protein concentration was determined using 280 nm absorbance assuming 1 Abs = 1 mg/mL. Samples with fibril material (20 μg), plasma (500 μg) or CSF (40 μg) proteins were prepared in 200 μL PBS buffer with 5 mM EDTA. Control samples (without fibril material) were prepared similarly. All samples were incubated at room temperature for one hour under gentle agitation. Fibrils and fibril-bound proteins were pelleted by centrifugation at 17,000 g for 30 minutes. The supernatant (175 μL) was removed and the aggregate was re-suspended in 175 μL PBS and pelleted again before further preparation for gel analysis and spin-filter assisted digest for quantitative MS/MS.
(§2) The fibril-protein pellets were transferred to spin-filters (0.22 μm), washed twice in PBS (100 μL) and once in 1 M NaCl (100 μL). The fibrils and fibril-bound proteins were dissolved by one-hour incubation in 100 μL 6 M guanidinium chloride followed by elution from the spin-filter. The eluted proteins were loaded onto a 3 kDa MWCO filter unit for filter-assisted unfolding, reduction, alkylation, and trypsin digestion. In brief, samples were washed twice in 8 M urea, once in 8 M urea with 50 mM DTT, once in 8 M urea with 50 mM iodoaceteamide, and twice in 8 M Urea. The filter units were dried by centrifugation (14,000 g in 30 minutes) after every addition. Trypsin digestion was carried out with 0.25 μg sequencing grade trypsin from Sigma Aldrich in 50 mM ammonium bicarbonate overnight at 37 °C. The tryptic peptides were collected by centrifugation, acidified with TFA (0.1%) and micro-purified using POROS R2 column material (Applied Biosystems) packed in P200 pipette tips (Sarstedt).
(§3) LC-MS/MS analyses were performed on an EASY-nLC II system (Thermo Fisher Scientific) connected to a TripleTOF 5600+ mass spectrometer (Sciex) equipped with a NanoSpray III source (Sciex) and operated under Analyst TF 1.6.0 control.
(§4) The micro-purified tryptic peptides were dissolved in 0.1% formic acid, injected and trapped on an in-house packed trap column (2 cm × 100 μm I.D) with RP ReproSil-Pur C18-AQ 3 μm resin (Dr. Maisch GmbH). Peptides were eluted from the trap column and separated on a 15 cm analytical column (75 μm i.d.) packed in-house in a pulled emitter with RP ReproSil-Pur C18-AQ 3 μm resin (Dr. Maisch GmbH). Elution from the analytical column was performed with a linear gradient from 5% to 35% phase B (90% acetonitrile with 0.1% formic acid) over 20 min for protein identification and 50 min for quantitative analysis, respectively.
(§5) All samples were analysed three times, yielding nine MS/MS experiments for each fibril for both plasma and CSF. For the area-based extracted ion chromatogram (XIC) quantification, the acquisition method was set up as an information-dependent acquisition (IDA) experiment collecting up to 25 MS/MS spectra in each 1.6 sec cycle using an exclusion window of 6 sec.
(§6) XIC quantification was based on the average ion intensity of the three most abundant peptides for each protein. Only proteins quantified in at least four out of nine MS/MS experiments per fibril were included in the quantification. The total ion scores were visualized after grouping the proteins according to function (Figure S11).
(§7) For each MS/MS experiment, the ion intensities of the individual proteins were normalized to the total ion intensity of that MS/MS experiment to achieve a relative protein composition. The contribution of each protein was averaged over all nine MS/MS experiments (Tables 1 and 2).

Ab2 fibrils [2] = tested on: T2, Ab2 fibrils; assay: as above; format: binding, human; conditions: 50:1 w/w plasma protein:fibril
T2 construct: Two structurally distinct fibrils of the Aβ(1–40) peptide associated with AD
Protocol: as §1, with “Samples with fibril material (20 μg), plasma (500 μg) or CSF (40 μg) proteins were prepared in 200 μL PBS buffer with 5 mM EDTA.” left out
as §2, §3, §4, §5, §6, §7

glucagon fibrils [3] = target: T3, glucagon fibrils (Homo sapiens, UniProt P01275); assay: as above; format: binding; conditions: 50:1 w/w plasma protein:fibril
T3 construct: fibrils of the peptide hormone glucagon
Protocol: as §1, with “Samples with fibril material (20 μg), plasma (500 μg) or CSF (40 μg) proteins were prepared in 200 μL PBS buffer with 5 mM EDTA.” left out
as §2, §3, §4, §5, §6, §7

C-36 fibrils [4] = target: T4, C-36 fibrils (Homo sapiens, UniProt P01009); assay: as above; format: binding; parameters: key to Identification status of plasma protein bound: C-36: *: Identified, but not quantified; —: Not identified in any of the samples; conditions: for Relative composition of plasma proteins bound: C-36: 50:1 w/w plasma protein:fibril
T4 construct: the 36 residue C-terminal fragment of α1-antitrypsin (C-36)
Protocol: as §1, with “Samples with fibril material (20 μg), plasma (500 μg) or CSF (40 μg) proteins were prepared in 200 μL PBS buffer with 5 mM EDTA.” left out
as §2, §3, §4, §5, §6, §7

αSN fibrils [5] = target: T5, αSN fibrils (Homo sapiens, UniProt P37840); assay: as above; format: binding; parameters: key to Identification status of plasma protein bound: αSN: *: Identified, but not quantified; —: Not identified in any of the samples; conditions: for Relative composition of plasma proteins bound: αSN: 50:1 w/w plasma protein:fibril
Protocol: as §1, with “Samples with fibril material (20 μg), plasma (500 μg) or CSF (40 μg) proteins were prepared in 200 μL PBS buffer with 5 mM EDTA.” left out
as §2, §3, §4, §5, §6, §7

FAS4-AD aggregates [6] = tested on: T6, FAS4-AD aggregates; assay: as above; format: binding, human; parameters: key to Identification status of plasma protein bound: FAS4-AD: *: Identified, but not quantified; —: Not identified in any of the samples; conditions: for Relative composition of plasma proteins bound: FAS4-AD: 50:1 w/w plasma protein:fibril
T6 construct: aggregates of a mutated version of the FAS1-4 domain of TGFBIp
Protocol: as §1, with “Samples with fibril material (20 μg), plasma (500 μg) or CSF (40 μg) proteins were prepared in 200 μL PBS buffer with 5 mM EDTA.” left out
as §2, §3, §4, §5, §6, §7

[7] = tested on: fibril systems (Ab1, Ab2, glucagon, αSN and C-36); assay: Fibril incubation with plasma, quantitative MS/MS, span over the fibril systems; format: binding, human
Protocol: as §1
The fibril-protein pellets were transferred to spin-filters (0.22 μm), washed twice in PBS (100 μL) and once in 1 M NaCl (100 μL). The fibrils and fibril-bound proteins were dissolved by one-hour incubation in 100 μL 6 M guanidinium chloride followed by elution from the spin-filter. […]
as §4, with “Peptides were eluted from the trap column and separated on a 15 cm analytical column (75 μm i.d.) packed in-house in a pulled emitter with RP ReproSil-Pur C18-AQ 3 μm resin (Dr. Maisch GmbH).” left out
as §5, with “sec. […]” for “sec.”
XIC quantification was based on the average ion intensity of the three most abundant peptides for each protein. Only proteins quantified in at least four out of nine MS/MS experiments per fibril were included in the quantification. […]

Ab1 fibrils [8] = tested on: T1, Ab1 fibrils; assay: Fibril incubation with CSF, quantitative MS/MS of bound proteins; format: binding, human; conditions: 4:1 w/w CSF protein:fibril
Protocol: as §1, with “Samples with fibril material (20 μg), plasma (500 μg) or CSF (40 μg) proteins were prepared in 200 μL PBS buffer with 5 mM EDTA.” left out
as §2, §3, §4, §5, §6, §7

Ab2 fibrils [9] = tested on: T2, Ab2 fibrils; assay: as above; format: binding, human; parameters: key to Identification status of CSF protein bound: Ab2: *: Identified, but not quantified; —: Not identified in any of the samples
Protocol: as §1, with “Samples with fibril material (20 μg), plasma (500 μg) or CSF (40 μg) proteins were prepared in 200 μL PBS buffer with 5 mM EDTA.” left out
as §2, §3, §4, §5, §6, §7

glucagon fibrils [10] = target: T3, glucagon fibrils; assay: as above; format: binding; conditions: 4:1 w/w CSF protein:fibril
Protocol: as §1, with “Samples with fibril material (20 μg), plasma (500 μg) or CSF (40 μg) proteins were prepared in 200 μL PBS buffer with 5 mM EDTA.” left out
as §2, §3, §4, §5, §6, §7

C-36 fibrils [11] = target: T4, C-36 fibrils; assay: as above; format: binding; parameters: key to Identification status of CSF protein bound: C-36: *: Identified, but not quantified; —: Not identified in any of the samples
Protocol: as §1, with “Samples with fibril material (20 μg), plasma (500 μg) or CSF (40 μg) proteins were prepared in 200 μL PBS buffer with 5 mM EDTA.” left out
as §2, §3, §4, §5, §6, §7

αSN fibrils [12] = target: T5, αSN fibrils; assay: as above; format: binding; parameters: key to Identification status of CSF protein bound: αSN: *: Identified, but not quantified; —: Not identified in any of the samples
Protocol: as §1, with “Samples with fibril material (20 μg), plasma (500 μg) or CSF (40 μg) proteins were prepared in 200 μL PBS buffer with 5 mM EDTA.” left out
as §2, §3, §4, §5, §6, §7

FAS4-AD aggregates [13] = tested on: T6, FAS4-AD aggregates; assay: as above; format: binding, human; parameters: key to Identification status of CSF protein bound: FAS4-AD: *: Identified, but not quantified; —: Not identified in any of the samples; conditions: symbol cells
Protocol: as §1, with “Samples with fibril material (20 μg), plasma (500 μg) or CSF (40 μg) proteins were prepared in 200 μL PBS buffer with 5 mM EDTA.” left out
as §2, §3, §4, §5, §6, §7

T3 sequence (P01275 53-81 limits assumed): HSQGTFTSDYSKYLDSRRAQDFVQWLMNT
T4 sequence (P01009 383-418 limits assumed): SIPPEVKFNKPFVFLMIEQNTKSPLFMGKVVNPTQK

Row | Substance | Relative composition of plasma proteins bound: Ab1 (Ab1 fibrils [1]) | Relative composition of plasma proteins bound: Ab2 (Ab2 fibrils [2]) | Relative composition of plasma proteins bound: Glucagon (glucagon fibrils [3]) | Relative composition of plasma proteins bound: C-36 (C-36 fibrils [4]) | Relative composition of plasma proteins bound: αSN (αSN fibrils [5]) | Relative composition of plasma proteins bound: FAS4-AD (FAS4-AD aggregates [6]) | contribution to the fibril interactomes [7] | Relative composition of CSF proteins bound: Ab1 (Ab1 fibrils [8]) | Relative composition of CSF proteins bound: Ab2 (Ab2 fibrils [9]; 4:1 w/w CSF protein:fibril) | Relative composition of CSF proteins bound: Glucagon (glucagon fibrils [10]) | Relative composition of CSF proteins bound: C-36 (C-36 fibrils [11]; 4:1 w/w CSF protein:fibril) | Relative composition of CSF proteins bound: αSN (αSN fibrils [12]; 4:1 w/w CSF protein:fibril) | Identification status of CSF protein bound: FAS4-AD (FAS4-AD aggregates [13]) | Identification status of plasma protein bound: FAS4-AD (FAS4-AD aggregates [6]; symbol cells) | Identification status of plasma protein bound: C-36 (C-36 fibrils [4]; symbol cells) | Identification status of plasma protein bound: αSN (αSN fibrils [5]; symbol cells) | Identification status of CSF protein bound: Ab2 (Ab2 fibrils [9]; symbol cells) | Identification status of CSF protein bound: C-36 (C-36 fibrils [11]; symbol cells) | Identification status of CSF protein bound: αSN (αSN fibrils [12]; symbol cells)
1 | Apolipoprotein A-I: plasma/CSF protein bound to fibrils | 8.8 ± 0.9 % of total protein | 14.9 ± 7.0 % of total protein | 11.7 ± 1.4 % of total protein | 13.5 ± 0.5 % of total protein | 14.7 ± 3.0 % of total protein | 15.7 ± 4.6 % of total protein | 8.8–14.9% | 3.9 ± 0.4 % of total protein | 2.9 ± 0.6 % of total protein | 2.6 ± 0.8 % of total protein | 5.0 ± 1.6 % of total protein | 2.7 ± 1.0 % of total protein | * |  |  |  |  |  | 
2 | Apolipoprotein B-100: plasma protein bound to fibrils | 0.6 ± 0.1 % of total protein | 0.5 ± 0.2 % of total protein | 0.4 ± 0.0 % of total protein | 0.1 ± 0.0 % of total protein | 0.2 ± 0.1 % of total protein |  | 0.4% |  |  |  |  |  |  | * |  |  |  |  | 
3 | α1-antitrypsin: plasma/CSF protein bound to fibrils | 0.4 ± 0.0 % of total protein | 0.4±0.0 % of total protein | 0.6 ± 0.0 % of total protein |  |  | 1.4 ± 0.5 % of total protein |  | 0.5 ± 0.2 % of total protein |  | 1.0 ± 0.2 % of total protein |  |  | * |  | * | * | * | * | *
